Measurements as given in paper PMC4571342 (Molecular Biology of the Cell, 2015).

Biological target: the molecule itself
Assay: AUC

B1: C-terminal region (amino acids 104–278) of Lnp1 fused to maltose-binding protein (domain or fragment)
chain: FYNNNRLRKLAKLRAIHQKKLEKLKEETHYNATSSIIQRFSSGEDQNDDAMVLLDDELNAKYQELNNLKTELEKFKKESHVKGLKKEDSDAWFDKIISVLAGGNELDSTSSLSPFKKIICPQCHWKSNCYRLASKPIIFICPHCNHKIDEVKEREDAIEAKQPAQPSQSEKEKTK
**Q.** For B1, which “stoichiometry N” value is on record?
**A.** 2
